For assay [1], the target named is DENV2 strain 16681 premembrane (prM) protein, wild type (dengue virus 2 strain 16681).
Assay [2] addresses trimeric prM–E spike of immature DENV2 strain 16681 virions (dengue virus 2 strain 16681). As to the kind of experiment: cryo-EM structure.
Assay [3] addresses T1, DENV2 strain 16681 premembrane (prM) protein, wild type (Dengue virus 2 strain 16681 (NC_001474)).
T1 chain: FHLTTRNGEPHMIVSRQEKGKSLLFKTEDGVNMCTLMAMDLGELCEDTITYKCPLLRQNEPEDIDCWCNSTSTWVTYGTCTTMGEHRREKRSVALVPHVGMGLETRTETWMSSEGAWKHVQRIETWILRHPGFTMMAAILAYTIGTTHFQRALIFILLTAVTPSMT
In words: cell-based or functional assay.

B1: prM12, murine prM-reactive monoclonal antibody (IgG2c) (antibody, V domains shown)
VH: EVQLQESGPELVKPGTSVKMSCKASGYTFTDYNIHWVKQSHGKSLEWIGYINPNNGGNKYTQKFEGRATLTVGKSSSTAYMELRSLTSEDSAVYYCARSPMYFYYDGSYYFDYWGQGTSLSVSS
VL: DIVLTQSPASLAVSLGQRATISYRASKSVSTSGYSYMHWNQQKPGQPPRLLIYLVSNLESGVPARFSGSGSGTDFTLNIHPVEEEDAATYYCQHIRELTFGAAPSAAAR
In the case of B1, the neutralisation of DENV2 RVPs, EC50 of the sensitive fraction of virions in assay [1] was found to be 5 ng/mL.

B2: prM12 Fab fragment (Fab, V domains shown)
VH: B1 VH
VL: B1 VL
In turn, B2 displayed an occupancy in assay [2] of 100%.

B3: prM13, murine prM-reactive monoclonal antibody (IgG2c) (antibody, V domains shown)
VH: AAQLQESGPELVKPGASVKISCKASGYTFTDYFINWVRQSHGKSLEWIGDFYPNNRGPTYNQKFEGKATLTVDKSSSTAYMELRSLTSDDSAVYYCARGLWDAWLSYWGQGTLVTVSA
VL: AIVATQSPAIMSASPGEKVTISCSASSSVSYMYWYQQKPGSSPKPWIYRTSNLASGVPTRFSGSGSGTSYSFTISSMEAEDAATYYCQQYHNYPRTFGGGTKAKSA
As to B3, the “neutralisation of DENV2 RVPs, EC50 of the sensitive fraction of virions” value in assay [3] is roughly 5 ng/mL.

These data come from PMC9933121 (Proceedings of the National Academy of Sciences of the …, 2023).
